This note sets out measurements from patent publication US8124332B2, “Methods of using sIP-10, CD26 inhibitors and CXCR3 levels in a sample to assess clearance of infection, response to interferon therapy, and treating chronic infections” (Institut Pasteur, priority 2006, dated 2012).

Assay [1] addresses T1, CXCR3 (Homo sapiens, UniProt P49682).
T1 sequence (P49682 1-368): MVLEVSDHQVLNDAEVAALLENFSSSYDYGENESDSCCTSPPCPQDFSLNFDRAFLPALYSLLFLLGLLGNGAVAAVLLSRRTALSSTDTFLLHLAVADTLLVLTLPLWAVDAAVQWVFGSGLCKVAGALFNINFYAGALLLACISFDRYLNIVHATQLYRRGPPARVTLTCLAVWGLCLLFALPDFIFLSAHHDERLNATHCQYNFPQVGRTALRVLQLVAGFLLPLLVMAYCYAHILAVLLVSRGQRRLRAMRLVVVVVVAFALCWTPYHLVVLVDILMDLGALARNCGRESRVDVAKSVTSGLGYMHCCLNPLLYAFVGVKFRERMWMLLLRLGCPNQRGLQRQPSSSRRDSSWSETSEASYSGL
The assay can be described thus: Ca++ flux in CHO cells transfected with a CXCR3 expressing plasmid. Format: cell-based. Also on record: transfected with a plasmid encoding the full-length open reading frame of CXCR3; expressed in transfected cells; plasmid from Dr. C P Tensen, Leiden. The text has this:
In order to test the hypothesis, it was necessary to generate novel reagents. First, recombinant full length CXCL10 (1-77) was exposed to recombinant DPP4 and cleavage was monitored by SELDI mass spectroscopy (FIG. 18A). […] Next, the inventors performed in vitro studies confirming that CXCL10 (1-77) but not CXCL10 (3-77) is capable of: (i) directing the migration of CXCR3^+ cells (FIG. 18B); (ii) mediating receptor internalization in primary PBMCs (not shown); and (iii) triggering a Ca^++ flux in CHO cells transfected with a CXCR3 expressing plasmid (FIGS. 18C, 18D). […] To date, however, there has been no in vivo evidence to support a role for CXCL10 antagonism in disease pathogenesis. […]
To generate CXCL10 (3-77), recombinant human CXCL10 (Peprotech, Rocky Hill, N.Y. USA) was incubated with recombinant DPP4 (Sigma) in a 100 mM Tris-HCL pH 8 solution, for 2 h at 37° C. […] Arrays were incubated and washed as per manufacturers instructions and analyzed using the ProteinChip System Series 4000 (Ciphergen). […] Data were analyzed using CiphergenExpress Software. […] Lymphocytes were allowed to migrate for 2 hours at 37° C. and cells in the bottom chamber were counted using a Guava cytometer (Guava Technologies, C A, USA). Calcium-flux assays: Increased intracellular [Ca^2+] in response to CXCR3 signaling were monitored by FACS. […] Ca^++ release was measured using a Canto II Cytometer. […]

In a further assay the test system is CXCR3+ cells. The assay can be described thus: Lymphocyte chemotaxis assay. Conditions: PHA-T blasts, chemokine in bottom chamber, 2 hours at 37° C. Type of assay: cell-based, human.
For assay [2], the target named is T1, CXCR3. Briefly: Receptor internalization in primary PBMCs. Also on record: endogenous in cells; host or cells: primary PBMCs. Format: cell-based. The text has this:
In order to test the hypothesis, it was necessary to generate novel reagents. First, recombinant full length CXCL10 (1-77) was exposed to recombinant DPP4 and cleavage was monitored by SELDI mass spectroscopy (FIG. 18A). […] Next, the inventors performed in vitro studies confirming that CXCL10 (1-77) but not CXCL10 (3-77) is capable of: (i) directing the migration of CXCR3^+ cells (FIG. 18B); (ii) mediating receptor internalization in primary PBMCs (not shown); and (iii) triggering a Ca^++ flux in CHO cells transfected with a CXCR3 expressing plasmid (FIGS. 18C, 18D). […] To date, however, there has been no in vivo evidence to support a role for CXCL10 antagonism in disease pathogenesis. In part, the challenge in establishing in vivo evidence of this mechanism of immune regulation is due to the inability to discriminate the two forms of the chemokine by a sensitive, immune-based assay.

In assay [3] the test system is plasma DPP activity (X-prolyl DPP). The note with it: plasma of patients with HCV infection.

Turning to “CXCL10 (1-77): recombinant full length secreted human CXCL10, agonist form”, the “triggering a Ca++ flux” value with CXCR3 [1] (CHO cells transfected with CXCR3) is given as “capable”. In the assay on CXCR3+ cells, the “directing the migration of CXCR3+ cells” value is on record as “capable”. Moreover, in the assay with CXCR3 [2], the mediating receptor internalization entry is on record as “capable”.

In the case of isoleucine-proline-isoleucine [IPI], the “inhibition of the enzymatic activity (plasma DPP activity)” value in assay [3] is reported as more than 98%.

For “CXCL10 (3-77): NH2-terminal truncated CXCL10 generated by DPP4 cleavage of two amino acids, antagonist form”, the “antagonism of CXCL10 (1-77) induced Ca++ mobilization” value in the assay with CXCR3 [1] (5 min pre-treatment, then CXCL10 (1-77)) is reported as “antagonized”.
